Experiments:
[1] = target: Alexa Fluor 594-modified E11C CaM (UniProt P0DP23); assay: FRET or BRET
[2] = target: Alexa Fluor 555-labeled E11C calmodulin mutant (UniProt P0DP23); assay: FRET or BRET
[3] = target: calmodulin (CaM) cysteine mutant M145C (UniProt P0DP23); assay: solvatochromic fluorescence
[4] = target: calmodulin (CaM) cysteine mutant M76C (UniProt P0DP23); assay: solvatochromic fluorescence
[5] = target: calmodulin (CaM) cysteine mutant E11C (UniProt P0DP23); assay: solvatochromic fluorescence
[6] = target: calmodulin (CaM) cysteine mutant E11C (UniProt P0DP23); assay: FRET or BRET

| Substance | FRET fluorescence increase at 611 nm [1] [fold] | increase of the direct fluorescence emission from 4DMN [1] [fold] | FRET fluorescence increase (Ca2+-bound over apo-state) [2] [fold] | 4DMN fluorescence increase at 505 nm (Ca2+-bound complex over apo-state) [3] [fold] | 4DMN fluorescence increase at 505 nm (Ca2+-bound complex over apo-state) [4] [fold] | 4DMN fluorescence increase at 505 nm (Ca2+-bound complex over apo-state) [5] [fold] | increase in the acceptor fluorescence after Ca2+ addition [6] [fold] |
| --- | --- | --- | --- | --- | --- | --- | --- |
| 4DMN-labeled M13 peptide (M13, the calmodulin-binding peptide, with the 4DMN amino acid at position 8) | 5.5 | 114 | 23 | 43 | 180 | 98 | – |
| 4DMN/Alexa 555-labeled M13 peptide (4DMN at position 8, Alexa Fluor 555 on an N-terminal cysteine) | – | – | – | – | – | – | 4.9 |

— PMC3776414
